Assay results published in patent US20180328920A1 (Hoffmann-La Roche, published 2018).

B1: PD1-Tim3-0389 (bispecific antibody, human IgG1, kappa, L234A L235A)
heavy 1: not shown
heavy 2: EVQLQQSVAELVRPGASVKLSCTASGFNIKTTYMHWVKQRPEQGLEWIGRIDPADDNTKYAPKFQGKATITADTSSNTAYLQLSSLTSEDAAIYYCVRDFGYVAWFAYWGQGTLVTFSAASTKGPSVFPLAPSSKSTSGGTAALGCLVEDYFPEPVTVSWNSGALTSGVHTFPAVLQSSGLYSLSSVVTVPSSSLGTQTYICNVNHKPSNTKVDEKVEPKSCDKTHTCPPCPAPEAAGGPSVFLFPPKPKDTLMISRTPEVTCVVVDVSHEDPEVKFNWYVDGVEVHNAKTKPREEQYNSTYRVVSVLTVLHQDWLNGKEYKCKVSNKALGAPIEKTISKAKGQPREPQVCTLPPSRDELTKNQVSLSCAVKGFYPSDIAVEWESNGQPENNYKTTPPVLDSDGSFFLVSKLTVDKSRWQQGNVFSCSVMHEALHNRFTQKSLSLSPGK
light 1: EVILVESGGGLVKPGGSLKLSCAASGFSFSSYTMSWVRQTPEKRLDWVATISGGGRDIYYPDSVKGRFTISRDNAKNTLYLEMSSLMSEDTALYYCVLLTGRVYFALDSWGQGTSVTVSSASVAAPSVFIFPPSDEQLKSGTASVVCLLNNFYPREAKVQWKVDNALQSGNSQESVTEQDSKDSTYSLSSTLTLSKADYEKHKVYACEVTHQGLSSPVTKSFNRGEC
light 2: NIVMTPTPKFLPVSSGDRVTMTCRASQSVDNYVAWYQQKPGQSPKLLIYYASNRYIGVPDRFTGSGSGTDFTFTISSVQVEDLAVYFCQQHYSSPYTFGSGTKLEIKRTVAAPSVFIFPPSDRKLKSGTASVVCLLNNFYPREAKVQWKVDNALQSGNSQESVTEQDSKDSTYSLSSTLTLSKADYEKHKVYACEVTHQGLSSPVTKSFNRGEC
notes: also called bispecific anti-PD1/Tim3 antibody
B2: PD1-Tim3-0476 (bispecific antibody)
heavy 1: not shown
heavy 2: EVQLVESGGGLVQPGGSLRLSCAASGFNIKTTYMHWVRQAPGKGLEWVGRIDPADDNTKYAPKFQGKATISADTSKNTAYLQMNSLRAEDTAVYYCVRDFGYVAWFAYWGQGTLVTVSSASTKGPSVFPLAPSSKSTSGGTAALGCLVEDYFPEPVTVSWNSGALTSGVHTFPAVLQSSGLYSLSSVVTVPSSSLGTQTYICNVNHKPSNTKVDEKVEPKSCDKTHTCPPCPAPEAAGGPSVFLFPPKPKDTLMISRTPEVTCVVVDVSHEDPEVKFNWYVDGVEVHNAKTKPREEQYNSTYRVVSVLTVLHQDWLNGKEYKCKVSNKALGAPIEKTISKAKGQPREPQVCTLPPSRDELTKNQVSLSCAVKGFYPSDIAVEWESNGQPENNYKTTPPVLDSDGSFFLVSKLTVDKSRWQQGNVFSCSVMHEALHNHYTQKSLSLSPGK
light 1: EVQLLESGGGLVQPGGSLRLSCAASGFSFSSYTMSWVRQAPGKGLEWVATISGGGRDIYYPDSVKGRFTISRDNSKNTLYLQMNSLRAEDTAVYYCVLLTGRVYFALDSWGQGTLVTVSSASVAAPSVFIFPPSDEQLKSGTASVVCLLNNFYPREAKVQWKVDNALQSGNSQESVTEQDSKDSTYSLSSTLTLSKADYEKHKVYACEVTHQGLSSPVTKSFNRGEC
light 2: DIVMTQSPLSLPVTPGEPASISCRASQSVDNYVAWYLQKPGQSPQLLIYYASNRYIGVPDRFSGSGSGTDFTLKISRVEAEDVGVYYCQQHYSSPYTFGQGTKVEIKRTVAAPSVFIFPPSDRKLKSGTASVVCLLNNFYPREAKVQWKVDNALQSGNSQESVTEQDSKDSTYSLSSTLTLSKADYEKHKVYACEVTHQGLSSPVTKSFNRGEC
B3: PD1-Tim3-0477 (bispecific antibody)
heavy 1: not shown
heavy 2: QITLKESGPTLVKPTQTLTLTCTFSGFSLSTSGMSVGWIRQPPGKGLEWLAHIWLNDDVFFNPALKSRLTITKDTSKNQVVLTMTNMDPVDTATYYCVRANGYLYALDYWGQGTLVTVSSASTKGPSVFPLAPSSKSTSGGTAALGCLVEDYFPEPVTVSWNSGALTSGVHTFPAVLQSSGLYSLSSVVTVPSSSLGTQTYICNVNHKPSNTKVDEKVEPKSCDKTHTCPPCPAPEAAGGPSVFLFPPKPKDTLMISRTPEVTCVVVDVSHEDPEVKFNWYVDGVEVHNAKTKPREEQYNSTYRVVSVLTVLHQDWLNGKEYKCKVSNKALGAPIEKTISKAKGQPREPQVCTLPPSRDELTKNQVSLSCAVKGFYPSDIAVEWESNGQPENNYKTTPPVLDSDGSFFLVSKLTVDKSRWQQGNVFSCSVMHEALHNHYTQKSLSLSPGK
light 1: B2 light 1
light 2: DIQLTQSPSFLSASVGDRVTITCSASSSVSYTQWYQQKPGKAPKLWIYDAFKLAPGVPSRFSGSGSGTEFTLTISSLQPEDFATYFCHQWSSYPWTFGQGTKLEIKRTVAAPSVFIFPPSDRKLKSGTASVVCLLNNFYPREAKVQWKVDNALQSGNSQESVTEQDSKDSTYSLSSTLTLSKADYEKHKVYACEVTHQGLSSPVTKSFNRGEC
B4: PD1-Tim3-0168 (bispecific antibody, human IgG1, kappa, L234A L235A)
heavy 1: not shown
heavy 2: QVTLKESGPGILQPSQTLSLTCSFSGFSLSTSGMSVGWIRQPSGKGLEWLAHIWLNDDVFFNPALKRRLTISKDTSNNQVFLQIASVVTADTATYYCVRANGYLYALDYWGQGISVTVSSASTKGPSVFPLAPSSKSTSGGTAALGCLVEDYFPEPVTVSWNSGALTSGVHTFPAVLQSSGLYSLSSVVTVPSSSLGTQTYICNVNHKPSNTKVDEKVEPKSCDKTHTCPPCPAPEAAGGPSVFLFPPKPKDTLMISRTPEVTCVVVDVSHEDPEVKFNWYVDGVEVHNAKTKPREEQYNSTYRVVSVLTVLHQDWLNGKEYKCKVSNKALGAPIEKTISKAKGQPREPQVCTLPPSRDELTKNQVSLSCAVKGFYPSDIAVEWESNGQPENNYKTTPPVLDSDGSFFLVSKLTVDKSRWQQGNVFSCSVMHEALHNRFTQKSLSLSPGK
light 1: B1 light 1
light 2: QIVLTQSPAIMSASPGQKVTITCSASSSVNYTQWYQQKLGSSPKLWIYDAFKLAPGVPARFSGSGTGTSYSLTISSMEAEDAASYFCHQWSSYPWTFGGGTKLEIKRTVAAPSVFIFPPSDRKLKSGTASVVCLLNNFYPREAKVQWKVDNALQSGNSQESVTEQDSKDSTYSLSSTLTLSKADYEKHKVYACEVTHQGLSSPVTKSFNRGEC
B5: PD1-Tim3-0359 (bispecific antibody, human IgG1, kappa, L234A L235A)
heavy: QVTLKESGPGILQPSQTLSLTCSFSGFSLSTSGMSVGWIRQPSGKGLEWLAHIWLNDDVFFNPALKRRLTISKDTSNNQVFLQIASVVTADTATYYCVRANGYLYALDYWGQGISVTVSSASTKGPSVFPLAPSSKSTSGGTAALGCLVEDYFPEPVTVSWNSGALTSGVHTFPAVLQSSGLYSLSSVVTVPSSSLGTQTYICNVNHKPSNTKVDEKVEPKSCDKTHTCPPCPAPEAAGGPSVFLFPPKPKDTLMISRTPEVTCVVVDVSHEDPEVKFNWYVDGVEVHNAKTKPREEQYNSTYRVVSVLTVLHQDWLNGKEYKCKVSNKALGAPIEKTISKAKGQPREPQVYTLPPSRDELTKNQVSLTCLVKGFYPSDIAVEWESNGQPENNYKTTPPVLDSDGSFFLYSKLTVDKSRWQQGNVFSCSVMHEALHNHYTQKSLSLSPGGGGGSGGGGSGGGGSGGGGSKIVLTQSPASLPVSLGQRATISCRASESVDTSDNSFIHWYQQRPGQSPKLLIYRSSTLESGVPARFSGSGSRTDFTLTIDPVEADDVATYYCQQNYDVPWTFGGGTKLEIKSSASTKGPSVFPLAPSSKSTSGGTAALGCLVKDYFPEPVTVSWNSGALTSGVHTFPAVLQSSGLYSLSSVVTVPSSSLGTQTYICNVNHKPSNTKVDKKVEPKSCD
light 1: B4 light 2
light 2: B1 light 1
notes: also called 2+2 format bispecific antibody PD1-Tim3-0359

How the values were obtained:
[1] = biological target: T1, Tim3-CLIP (human Tim3 extracellular domain - CLIP tag - Tim3 transmembrane region - Flag tag, on HEK293 cells) (human, CLIP tag labelled with CLIP-Red (FRET acceptor dye)); experiment: cell-based TR-FRET on PD1-SNAP/Tim3-CLIP HEK293 cells (FIG. 5)
T1 construct: also called Tim3 receptor on PD1+Tim3+ HEK cells
Protocol: Transfected cells were sedimented and resuspended at a density of 1×10⁶ cells/ml in tag-Lite® buffer (Cisbio). Thereafter, cells were stained with 100 nM SNAP-Lumi4-Tb (Cisbio) and 100 nM CLIP-Red (Cisbio) for one hour at 37° C. in tag-Lite® buffer (Cisbio). After washing and re-suspending in PBS buffer comprising 2% FCS (v/v), about 50.000 cells (in 50 μl volume) were seeded into 96-well flat-bottom white plates (Costar) bevor either control antibody (e.g. a bivalent, monospecific antibody or an isotype control) or bispecific antibody was added to the cells at a final concentration of 0.001-10 nM. After an incubation for one hour at 4° C. or room temperature, time-resolved fluorescence was measured as ratio of the emission signal at 665 nm and 620 nm (665/620 nm ratio) with a BMG Pherastar reader or Tecan Infinite M1000 Pro using standard settings provided by the respective vendor.

[2] = biological target: T2, PD1-SNAP (human PD1 extracellular domain - SNAP tag - PD1 transmembrane region - Flag tag, on HEK293 cells) (human, SNAP tag labelled with SNAP-Lumi4-Tb (FRET donor dye)); experiment: cell-based TR-FRET (Tag-lite) on HEK293 cells co-expressing PD1-SNAP and Tim3-CLIP; signal needs simultaneous binding of both
T2 construct: also called PD1 receptor on PD1+Tim3+ HEK cells

[3] = biological target: T1, Tim3-CLIP (human Tim3 extracellular …); experiment: as above
[4] = biological target: T2, PD1-SNAP (human PD1 extracellular …); experiment: cell-based TR-FRET on PD1-SNAP/Tim3-CLIP HEK293 cells, antibody at 0.01-40 nM, 1 h at 4 C (FIG. 6, diamond)
Protocol: (§1) Transfected cells were sedimented and resuspended at a density of 1×10⁶ cells/ml in tag-Lite® buffer (Cisbio). Thereafter, cells were stained with 100 nM SNAP-Lumi4-Tb (Cisbio) and 100 nM CLIP-Red (Cisbio) for one hour at 37° C. in tag-Lite® buffer (Cisbio). […] After an incubation for one hour at 4° C. or room temperature, time-resolved fluorescence was measured as ratio of the emission signal at 665 nm and 620 nm (665/620 nm ratio) with a BMG Pherastar reader or Tecan Infinite M1000 Pro using standard settings provided by the respective vendor.
(§2) To show the specificity of the FRET signal induced by simultaneous binding of the bispecific antibody, monoclonal IgGs of only one specificity were added for competition. Therefore, PD1 and Tim3 expressing HEK cells as described before were labelled with 100 nM SNAP-Lumi4-Tb and 100 nM CLIP-Red. […] A FRET signal was detected. To underline the specificity of FRET signal after bispecific antibody treatment, a monospecific, bivalent anti-PD1 monoclonal antibody was tested alone (FIG. 6, triangle). No FRET signal was detected. If the monospecific, bivalent anti-PD1 monoclonal antibody and the bispecific anti-PD1/Tim3 antibody were present (80 nM monospecific antibody concentration) no FRET signal was detected (FIG. 6, squares). Likewise no FRET signal was obtained if a bivalent, monospecific anti-Tim3 antibody was added (see FIG. 7).

[5] = biological target: T1, Tim3-CLIP (human Tim3 extracellular …); experiment: as above
Protocol: as §1, §2

Binder	binding result [2]	binding result [3]	also measured
B1	binds		binding result [1]: binds
B2		binds	
B3		binds	
B4			binding result [4]: binds; binding result [5]: binds
B5	binds	binds	
